The text below walks through data of US6967100B2, “Pancreatic islet cell growth factors” (The Walter and Eliza Hall Institute of Medical Research, priority 2000, dated 2005).

Holding throughout (type): cell-based
In assay [1] the test system is 13.5 dpc fetal mouse pancreas cells. Kind of assay: Colony formation of 13.5 dpc fetal mouse pancreas cells cultured with BMPs and laminin-1. Particulars: for proliferation or colony formation, candidate growth factors individually: 13.5 dpc fetal pancreas cells; for proliferation and colony formation of fetal pancreas cells: in the presence (but not absence) of laminin-1, four days culture. The procedure: Dissociated fetal pancreas cells were prepared from 13.5 dpc CBA mice. Pregnant mice at 13.5 dpc were killed by cervical dislocation and fetuses collected into ice cold sterile mouse tonicity phosphate-buffered saline (MTPBS). Fetal pancreata were harvested under an Olympus dissection microscope into RPMI 1640 medium and dissociated in a shaking water bath at 37° C. for 11 mins in Ca^2+/Mg^2+-free PBS containing 0.5% v/v trypsin/EDTA as described for testis by Bucci et al. (1986). After dissociation, trypsin was inactivated by addition of 8% w/v bovine serum albumin (BSA, fraction V) (Sigma, St. Louis, USA). The tissue was aspirated several times in a pipette, passed through a 27 gauge needle to make a single cell suspension and then rinsed in 10 μg/ml DNAse I (Promega, Madison, USA) in RPMI 1640 for 10 mins to reduce cellular aggregates. Cell suspensions were filtered through a 70-100 μm steel mesh, centrifuged at 400×g for 5 mins and the supernatant discarded. The cell pellet was resuspended in HYBRIDOMA medium and stored on ice. Cells were counted under a haemocytometer and viability was determined by exclusion of 0.2% v/v trypan blue dye. Pancreatic cells were plated in 8 chamber slides (Nunc) at 1.5×10^4 cells/well in 0.3 ml HYBRIDOMA medium 500 UI/ml penicillin and 500 μg/ml streptomycin. The cells were cultured in 10% v/v CO2, 90% v/v air at 37° C. with 100% humidity for four days in the presence of factors such as laminin-1 and BMPs.
After four days in culture, cells were washed twice with warm MT-PBS and fixed with a 4% v/v paraformaldehye for 10 mins. In some cases, 100 μM BrdU was added to label proliferating cells 12 hours before fixation and detection with monoclonal antibody to BrdU and FITC-labelled rabbit anti-mouse immunoglobulin. For immunoperoxidase staining, endogenous peroxidase was blocked by 3% v/v H2O2 in methanol for 8 mins and, prior to addition of primary antibody, non-specific protein binding was blocked by incubation for at least 30 mins in MTPBS containing 2% w/v BSA or 2% v/v normal rabbit serum. Controls were performed by replacing primary antibody with pre-immune serum from the appropriate species. Tissue sections or cells were incubated with primary antibodies for 90 min RT, followed by three thorough washes with MTPBS. For immunoperoxidase staining, horseradish peroxidase-conjugated rabbit anti-guinea pig, swine anti-rabbit or rabbit anti-mouse immunoglobulins (Dako) diluted 1:80 were added for 30 mins at RT followed by thorough washes; colour was developed with 3,3′-diaminobenzidine/H2O2 for 4-8 mins and slides counterstained with haematoxylin.
A pancreatic cell colony was defined as a spherical collection of 20 cells. Colonies were counted under a×10 power objective with an eyepiece graticule.

The subject of assay [2] is E15.5 CBA mouse fetal pancreas cells. As to the kind of experiment: Cystic colony formation of E15.5 fetal mouse pancreas cells in laminin-1 overlay culture. The procedure:
Pancreata were dissected from embryonic day (E)15.5 CBA mouse fetuses and dissociated into single cells as described (Jiang et al., 1999). Briefly, dissected pancreas was digested with trypsin/EDTA for 15 minutes at 37° C. in a shaking water bath. Cells were counted in a haemocytometer and viability determined by trypan blue dye exclusion. Each fetal pancreas yielded 50,000 viable cells (48,509±11,299, n=14). Dissociated cells were plated in 8 well chamber slides (Nunc, Naperville, USA) at 7.5×10^4 cells/well in 0.3 ml AIM V medium supplemented with N-2 (1:100, Gibco BRL Life Technologies, Gaithersburg, USA), 500 UI/ml penicillin and 500 μg/ml streptomycin. Laminin-1 (160 μg/ml), purified from murine Engelbreth-Holm-Swarm tumor basement membrane (Becton Dickinson Labware, Bedford, USA), was overlayed on cells in the presence of various growth factors. Cultures were incubated in 10% CO2 90% air at 37° C., for up to 6 days. Recombinant human BMP 6 and BMP 5, recombinant human TGF-β1 and recombinant activin A were purchased from R&D Systems (Minneapolis, USA). These factors, dissolved at a concentration of 10 ng/μl in mouse tonicity phosphate buffered saline (PBS) containing 0.1% w/v bovine serum albumin (BSA), were added at the start of culture. Phase contrast images of colonies were photographed with Olympus IX70 digitized camera.
Colony formation was assessed at day 6 of culture. A colony was defined as a cellular sphere ≧30 μm in diameter, which contained more than 20 cells. The number of colonies per well was counted directly under a inverted microscope at ×10. Colony counts were performed using a blind design.

For assay [3], the system named is C2C12 myoblasts. As to the kind of experiment: C2C12 cell BMP bioassay (transformation of myoblasts into alkaline phosphatase-containing osteoblasts). The note with it: for BMP activity of conditioned medium (alkaline phosphatase activity of C2C12 cells): conditioned medium of stably transfected CHO cells, compared to medium of untransfected CHO cells. The procedure: BMP activity was measured in the C2C12 cell bioassay, in which BMPs transform C2C12 myoblasts into alkaline phosphatase-containing osteoblasts (Katagiri et al., 1994). Briefly, CHO cells were plated at a density of around 5×10^6 per 75 cm^2 flask in serum-free HYBRIDOMA medium (Gibco BRL Life Technology) (SFHM) containing 10% v/v FCS. Once the cells had reached confluency, the medium was removed, the cells washed twice with SFHM and 10 ml of SFHM then added to each flask. The cells were cultured for four days and the conditioned medium collected, filtered through a 2 micron filter and stored at 4° C.
2×10^3 C2C12 cells were plated into each well of a 96-well tissue culture plate in DME/10% v/v FCS. Twenty-four hours later, the medium was removed and replaced with 100 μl SFHM/1% v/v FCS. 50 μl of each conditioned medium was added in duplicate to the top row of the 96-well plate and the volume of these wells then made up to 200 μl. Using a multi-channel pipette, 100 μl from each well was then serially transferred to subsequent rows thus diluting the conditioned medium 2-fold with each transfer. After incubation for five days, the media were discarded and the cells washed with normal saline. Cells were lysed for 10 mins at room temperature (RT) in 100 μl 0.5% v/v TritonX-100 and 100 mM diethanolamine (pH 9.5) in normal saline. To each well was then added an aqueous solution containing 10 mM diethanolamine, 1 mg/ml p-nitrophenyl phosphate (PNPP) and 0.5 mM MgCl2. The yellow reaction product catalyzed by alkaline phosphatase was allowed to develop for 10-60 mins before reading absorption at 415 nm.

The test system of assay [4] is E15.5 CBA mouse fetal pancreas cells. As to the kind of experiment: Cystic colony formation of E15.5 fetal mouse pancreas cells in laminin-1 overlay culture. The note with it: BMP alone.

B1: Activin A: recombinant activin A from R&D Systems (protein, UniProt P08476 311-426, looked up)
Inhibin beta A chain: GLECDGKVNICCKKQFFVSFKDIGWNDWIIAPSGYHANYCEGECPSHIAGTSGSSLSFHSTVINHYRMRGHSPFANLKSCCVPTKLRPMSMLYYDDGQNIIKKDIQNMIVEECGCS
Take B1: the “proliferation or colony formation, candidate growth factors individually” value (shortened to “proliferation or colony formation”) in assay [1] is given as “unable to promote proliferation or colony formation”. In assay [2] (100 ng/ml against BMP 6 10 ng/ml, laminin-1 160 μg/ml, p<0.01 (FIG. 10B)), the “BMP 6-induced colony formation” value is listed as “antagonized”. For the same molecule, the “colony formation relative to laminin-1 alone” value in assay [2] (100 ng/ml, laminin-1 160 μg/ml (FIG. 10A)) is listed as “suppressed colony formation to levels below that observed with laminin-1 alone”.

B2: BMP 4/4: BMP 4 homodimer, epitope-tagged recombinant mouse BMP in CHO cell conditioned medium (protein, UniProt P21275 293-408, looked up)
Bone morphogenetic protein 4: SPKHHPQRSRKKNKNCRRHSLYVDFSDVGWNDWIVAPPGYQAFYCHGDCPFPLADHLNSTNHAIVQTLVNSVNSSIPKACCVPTELSAISMLYLDEYDKVVLKNYQEMVVEGCGCR
modifications: epitope tag
Regarding B2, in assay [1], the “proliferation and colony formation of fetal pancreas cells” value (“proliferation and colony formation” for short) is listed as “did not promote colony formation”. Also, in assay [3], the “BMP activity of conditioned medium (alkaline phosphatase activity of C2C12 cells)” value (“BMP activity of conditioned medium” for short) is recorded as “significant activity”.

B3: BMP 4/6: BMP 4 and BMP 6 heterodimer, recombinant mouse, CHO cell conditioned medium (protein, UniProt P21275 293-408; P20722 372-510, looked up)
Bone morphogenetic protein 4: SPKHHPQRSRKKNKNCRRHSLYVDFSDVGWNDWIVAPPGYQAFYCHGDCPFPLADHLNSTNHAIVQTLVNSVNSSIPKACCVPTELSAISMLYLDEYDKVVLKNYQEMVVEGCGCR
Bone morphogenetic protein 6: SASSRRRQQSRNRSTQSQDVSRGSGSSDYNGSELKTACKKHELYVSFQDLGWQDWIIAPKGYAANYCDGECSFPLNAHMNATNHAIVQTLVHLMNPEYVPKPCCAPTKLNAISVLYFDDNSNVILKKYRNMVVRACGCH
modifications: heterodimer
notes: BMP 4 and BMP 6 heterodimer, recombinant mouse, CHO cell conditioned medium
In the case of B3, in assay [1], the “proliferation and colony formation” value is recorded as “did not promote colony formation”. Also, the “BMP activity of conditioned medium” value in assay [3] was “significant activity”.

B4: BMP 4/7: BMP 4 and BMP 7 heterodimer, recombinant mouse, CHO cell conditioned medium (protein, UniProt P21275 293-408; P23359 292-430, looked up)
Bone morphogenetic protein 4: SPKHHPQRSRKKNKNCRRHSLYVDFSDVGWNDWIVAPPGYQAFYCHGDCPFPLADHLNSTNHAIVQTLVNSVNSSIPKACCVPTELSAISMLYLDEYDKVVLKNYQEMVVEGCGCR
Bone morphogenetic protein 7: STGGKQRSQNRSKTPKNQEALRMASVAENSSSDQRQACKKHELYVSFRDLGWQDWIIAPEGYAAYYCEGECAFPLNSYMNATNHAIVQTLVHFINPDTVPKPCCAPTQLNAISVLYFDDSSNVILKKYRNMVVRACGCH
modifications: heterodimer
notes: BMP 4 and BMP 7 heterodimer, recombinant mouse, CHO cell conditioned medium
B4: in assay [1], the “proliferation and colony formation” value is “stimulated fetal pancreas cells to proliferate and form colonies”. Besides, the “relative BMP bioactivity” value in assay [3] (FIG. 3, heterodimer versus homodimer) is on record as “more active than 4/4 homodomers”. Besides, in assay [3], the “BMP activity of conditioned medium” value is “significant activity”.

B5: betacellulin: candidate growth factor (protein, UniProt P35070 32-111, looked up)
Betacellulin: DGNSTRSPETNGLLCGDPEENCAATTTQSKRKGHFSRCPKQYKHYCIKGRCRFVVAEQTPSCVCDEGYIGARCERVDLFY
For B5, the “proliferation or colony formation” value in assay [1] was “unable to promote proliferation or colony formation”.

B6: BMP 6/6: recombinant mouse BMP 6, myc epitope tagged, CHO cell conditioned medium; called BMP 6 in b118 (protein, UniProt P20722 372-510, looked up)
Bone morphogenetic protein 6: SASSRRRQQSRNRSTQSQDVSRGSGSSDYNGSELKTACKKHELYVSFQDLGWQDWIIAPKGYAANYCDGECSFPLNAHMNATNHAIVQTLVHLMNPEYVPKPCCAPTKLNAISVLYFDDNSNVILKKYRNMVVRACGCH
modifications: myc epitope tag
notes: called BMP 6
Turning to B6, the “proliferation and colony formation” value in assay [1] was “stimulated fetal pancreas cells to proliferate and form colonies”.

B7: BMP 5: recombinant human BMP 5 purchased from R&D Systems (protein, UniProt P22003 317-454, looked up)
Bone morphogenetic protein 5: AANKRKNQNRNKSSSHQDSSRMSSVGDYNTSEQKQACKKHELYVSFRDLGWQDWIIAPEGYAAFYCDGECSFPLNAHMNATNHAIVQTLVHLMFPDHVPKPCCAPTKLNAISVLYFDDSSNVILKKYRNMVVRSCGCH
For B7, the “concentration of maximal stimulation of colony formation” value in assay [2] (laminin-1 160 μg/ml, day 6, fewer colonies at higher concentrations) worked out at 100 ng/mL. Moreover, the “formation of cystic colonies in the presence of laminin-1” value in assay [2] (laminin-1 160 μg/ml, up to 6 days) was “synergized with laminin-1 to promote formation of cystic colonies”. In addition, in assay [4], the “colony formation in the absence of laminin-1” value was “no effect”.

B8: BMP 7/7: BMP 7 homodimer, epitope-tagged recombinant mouse BMP in CHO cell conditioned medium (protein, UniProt P23359 292-430, looked up)
Bone morphogenetic protein 7: STGGKQRSQNRSKTPKNQEALRMASVAENSSSDQRQACKKHELYVSFRDLGWQDWIIAPEGYAAYYCEGECAFPLNSYMNATNHAIVQTLVHFINPDTVPKPCCAPTQLNAISVLYFDDSSNVILKKYRNMVVRACGCH
modifications: epitope tag
For B8, the “proliferation and colony formation” value in assay [1] is “stimulated fetal pancreas cells to proliferate and form colonies”. In addition, the “BMP activity of conditioned medium” value in assay [3] is reported as “significant activity”.

B9: KGF: candidate growth factor (protein, UniProt P21781 32-194, looked up)
Fibroblast growth factor 7: CNDMTPEQMATNVNCSSPERHTRSYDYMEGGDIRVRRLFCRTQWYLRIDKRGKVKGTQEMKNNYNIMEIRTVAVGIVAIKGVESEFYLAMNKEGKLYAKKECNEDCNFKELILENHYNTYASAKWTHNGGEMFVALNQKGIPVRGKKTKKEQKTAHFLPMAIT
Take B9: the “proliferation or colony formation” value in assay [1] was “unable to promote proliferation or colony formation”.
